{
  "source": "patent US20240270854A1",
  "about": "(Stanford University, published 2024)",
  "binders": {"B1": {"name": "(NB1-4)-(NB2-43) (bispecific antibody)", "chain": "QVQLQESGGGLVQAGGSLRLSCAASGTIFYFSIMGWYRQAPGKEREFVAGIGVGSNTYYADSVKGRFTISRDNAKNTVYLQMNSLKPEDTAVYYCAAFDSISGELQYWGQGTQVTVSSGGGGSGGGQVQLQESGGGLVQAGGSLRLSCAASGSISSATVMGWYRQAPGKEREFVAAITAGGTTNYADSVKGRFTISRDNAKNTVYLQMNSLKPEDTAVYYCAVVVFTSQDRIYYYRYWGQGTQVTVSS"}},
  "key": {"[1]": {"target": "BMPR1a on skeletal stem cells", "sequence (P36894 whole entry)": "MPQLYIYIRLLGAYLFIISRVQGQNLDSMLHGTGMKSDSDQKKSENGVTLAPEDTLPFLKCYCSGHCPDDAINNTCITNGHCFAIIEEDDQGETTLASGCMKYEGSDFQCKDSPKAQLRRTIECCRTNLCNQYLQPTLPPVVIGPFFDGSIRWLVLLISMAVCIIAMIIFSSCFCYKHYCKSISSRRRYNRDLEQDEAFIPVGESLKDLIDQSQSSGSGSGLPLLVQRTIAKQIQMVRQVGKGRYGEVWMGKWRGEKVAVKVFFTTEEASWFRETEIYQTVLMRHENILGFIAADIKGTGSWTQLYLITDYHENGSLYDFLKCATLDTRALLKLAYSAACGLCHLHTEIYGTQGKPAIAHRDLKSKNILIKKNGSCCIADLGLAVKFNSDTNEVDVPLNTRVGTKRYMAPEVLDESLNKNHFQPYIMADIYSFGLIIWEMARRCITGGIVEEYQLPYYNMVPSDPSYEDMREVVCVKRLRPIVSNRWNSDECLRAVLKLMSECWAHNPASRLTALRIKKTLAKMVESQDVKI", "experiment": "cell-based or functional assay"}, "[2]": {"target": "BMPR2 on skeletal stem cells", "sequence (Q13873 whole entry)": "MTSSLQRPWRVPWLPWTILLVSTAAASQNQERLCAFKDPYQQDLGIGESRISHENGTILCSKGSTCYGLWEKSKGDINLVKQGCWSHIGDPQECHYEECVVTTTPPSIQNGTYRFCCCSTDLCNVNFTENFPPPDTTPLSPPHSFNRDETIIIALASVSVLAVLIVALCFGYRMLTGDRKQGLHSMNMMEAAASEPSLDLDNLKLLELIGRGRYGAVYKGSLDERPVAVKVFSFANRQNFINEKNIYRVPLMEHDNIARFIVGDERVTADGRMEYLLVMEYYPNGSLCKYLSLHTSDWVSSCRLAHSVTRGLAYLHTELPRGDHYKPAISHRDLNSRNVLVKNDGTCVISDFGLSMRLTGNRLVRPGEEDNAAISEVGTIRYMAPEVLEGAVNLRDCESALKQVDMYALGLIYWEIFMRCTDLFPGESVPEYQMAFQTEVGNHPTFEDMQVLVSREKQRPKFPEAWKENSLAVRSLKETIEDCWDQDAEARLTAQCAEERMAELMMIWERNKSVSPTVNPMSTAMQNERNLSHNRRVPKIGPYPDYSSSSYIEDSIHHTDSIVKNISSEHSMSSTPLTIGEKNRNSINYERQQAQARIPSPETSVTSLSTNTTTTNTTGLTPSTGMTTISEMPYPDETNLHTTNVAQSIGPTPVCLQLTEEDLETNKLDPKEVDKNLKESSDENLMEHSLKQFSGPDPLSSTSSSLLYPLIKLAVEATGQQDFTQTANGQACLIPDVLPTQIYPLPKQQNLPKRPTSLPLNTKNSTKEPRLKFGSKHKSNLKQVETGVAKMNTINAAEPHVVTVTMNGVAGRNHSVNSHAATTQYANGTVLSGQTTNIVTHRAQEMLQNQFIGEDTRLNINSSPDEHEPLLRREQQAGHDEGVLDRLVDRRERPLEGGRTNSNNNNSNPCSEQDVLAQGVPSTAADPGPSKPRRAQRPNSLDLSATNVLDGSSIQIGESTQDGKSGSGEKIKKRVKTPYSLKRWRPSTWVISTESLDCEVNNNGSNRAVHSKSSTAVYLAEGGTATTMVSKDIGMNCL", "experiment": "cell-based or functional assay"}},
  "data": [
    {"binder": "B1", "values": [
      {"measurement": "p-smad1/5 signaling in SSCs after 30 minutes treatment", "setting": "[1]", "value": "3 folds higher activation than control"},
      {"measurement": "p-smad1/5 signaling in SSCs after 30 minutes treatment", "setting": "[2]", "value": "3 folds higher activation than control"}
    ]}
  ]
}
